According to paper PMC4938795:

Biological target: RD1-MART1^HIGH Y93Fα, yeast displayed (human)
Assay: flow cytometry on cells

- fold weaker binding than RD1-MART1^HIGH: 10 fold
Substance: MART1/HLA-A2 monomer (from UniProt P61769 21-119) (peptide-MHC)
